Measured values from paper PMC12162814.

Legend:
[1] = molecular target: T1, H-NSctd WT (Salmonella enterica serovar Typhimurium, UniProt P0A1S2 85-137); experiment: NMR titration
[2] = molecular target: H-NSctd K107A (Salmonella enterica serovar Typhimurium, UniProt P0A1S2 85-137, K107A); experiment: NMR titration
[3] = molecular target: H-NSctd T115A (Salmonella enterica serovar Typhimurium, UniProt P0A1S2 85-137, T115A); experiment: NMR titration
[4] = molecular target: T1, H-NSctd WT; experiment: NMR titration; remark: listed apart in the source
[5] = molecular target: T1, H-NSctd WT; experiment: ITC

B1: 3AT DNA (dsDNA)
DNA 1: CGCATATATGCG
DNA 2: CGCATATATGCG
In the case of B1, the Kd [1] is reported as 1.5 ± 0.5 µM, the Kd [2] is reported as 5.3 ± 1.6 µM and the Kd [3] is reported as 4.1 ± 1.2 µM. The Kd [4] was 6.3 ± 0.6 µM and the Kd [5] was 7.6 ± 0.5 µM.
